Square brackets hold non-standard residues; d marks the D form. Ends that are not written are not given here. Bpa = N[C@@H](Cc1ccc(C(=O)c2ccccc2)cc1)C(=O)O; Phe(4-CN) = N#Cc1ccc(C[C@H](N)C(=O)O)cc1 Bounds are passed on as bounds.

Assay [1] concerns the target T1, trypsin (Sus scrofa, UniProt P00761).
T1 construct: purchased Promega V5111
The assay can be described thus: Bulk (in-solution) trypsin digestion of peptide substrate, RP-HPLC separation and MALDI-TOF mass spectrometry, SERS of separated fractions. The note with it: for change of 1003 cm^-1 phenylalanine SERS peak in cleaved fraction after trypsin cleavage: cleaved vs uncleaved fractions labelled on gold nanodome chips; for extent of substrate digestion by trypsin (RP-HPLC/MALDI-TOF): peptide 100 μg/ml, trypsin 3.3 μg/ml (1/30 w/w), 50 mM ammonium-bicarbonate pH 7.8, 37° C. It counts as biochemical. The procedure: As a first step, the activity of the protease on the substrate in solution was monitored. RP-HPLC was used to separate the substrate from the digestion products, which are subsequently labelled on a nanodome platform. From the difference spectrum, the characteristic peaks of the cleaved-off and remaining fractions are derived. FIG. 4(a2-a4) depicts the results of this experiment for trypsin and its CALNNYGGGGVRGNF (100 μg/ml) (SEQ ID NO:3) substrate. The peptide was incubated with trypsin (3.3 μg/ml) at a 1/30 (w/w) ratio in a 50 mM ammonium-bicarbonate (pH 7.8) buffer in water, and separated with RP-HPLC (FIG. 4(a2)) after 0, 30 and 90 minutes of incubation. The RP-HPLC-separated peptides and their fragments were identified using MALDI-TOF mass spectrometry. […] The dimer formation is a consequence of the oxidation of the cysteine thiol groups upon which a disulphide bond is formed between two peptides. […] Subsequently, nanodome chips were labeled with cleaved and uncleaved fractions. […] Furthermore, the peaks at 618 cm^−1, 1030 cm^−1 and 1207 cm^−1 show a partial decrease, although their signal to noise ratio is low. All these peaks correspond to those attributed to phenylalanine (Table 1). From this experiment, it is concluded that the ratio between the 1003 cm^−1 peak and the 829-860 cm^−1 peaks (I1003/I829-860) is a correct metric for IF/IY, the cleavage of the substrate by trypsin.
The activity of trypsin on the peptides with unnatural aromatic amino acids was verified using HPLC/mass spectrometry, showing complete digestion of 100 μg/ml peptide after 1 hour incubation with a 4 μg/ml Trypsin concentration. Subsequently, cleaved and uncleaved fractions were labelled on a nanodome SERS substrate.

The target of assay [2] is endoproteinase Glu-C (Staphylococcus aureus, UniProt P0C1U8).
Sequence of endoproteinase Glu-C (P0C1U8 69-336): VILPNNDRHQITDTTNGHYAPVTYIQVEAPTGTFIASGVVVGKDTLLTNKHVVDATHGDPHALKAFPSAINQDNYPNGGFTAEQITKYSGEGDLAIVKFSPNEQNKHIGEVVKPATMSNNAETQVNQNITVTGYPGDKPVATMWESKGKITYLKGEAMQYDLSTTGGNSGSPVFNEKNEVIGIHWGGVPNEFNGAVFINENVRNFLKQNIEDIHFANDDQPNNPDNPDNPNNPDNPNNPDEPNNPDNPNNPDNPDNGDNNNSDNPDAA
Protocol: Peptides were first dissolved to 100 μg/μl in DMF and further diluted to 100 μg/ml in either a 10% acetonitrile/water mixture for labelling or a 50 mM ammonium bicarbonate buffer (pH 7.8) for bulk digestion experiments. Prior to labelling the chips with the peptides, they were cleaved into pieces of a few mm^2 and cleaned by sonication in acetone, rinsed with isopropyl alcohol and water and dried with under a stream of nitrogen. Next, remaining organic contaminants were removed in an 02 plasma, which also renders the surface hydrophilic (120 s, PVA-TEPLA GIGAbatch 310 M, 6000 sccm O2, 600 W, 750 mTorr). Immediately afterwards, the chips were immersed in separate wells of a polypropylene 96-well plate, using 100 μl of a 100 μg/ml peptide solution in 10% acetonitrile in water. After overnight incubation, the chips were rinsed excessively with deionized water. […]
After incubation for a specific time at 37° C., 750 μl of a solution with 100 μg/ml substrate and 3.3 μg/ml trypsin or endoproteinase Glu-C in 50-100 mM ammonium bicarbonate was injected in a C-18 reversed phase high-performance liquid chromatography column (Macherey-Nagel) and eluted by a water/acetonitrile gradient (Akta Purifier, GE). The molecular weight of separated fractions was determined using matrix-assisted laser desorption/ionisation time-of-flight mass spectrometry (Bruker MALDI-TOF).
The target of assay [3] is T1, trypsin. The assay can be described thus: Real-time SERS observation of trypsin activity on gold-nanodome bound peptide. It counts as biochemical. The procedure:
Finally, CALNNYGGGGVRGNF (SEQ ID NO:3) labelled chips were incubated with trypsin under the Raman microscope for a real-time acquisition of SERS spectra. […] A new spectrum was acquired every 2-3 minutes with an integration time of 100 seconds. A relative decrease of I1003 versus the peaks at 829, 860, 948, 1248, 1330, 1603 and 1677 cm^−1 is visible within the first minutes after adding 0.2 μg/ml trypsin (8.6 nM) to a total volume of 1 ml (8.6 pmol), in agreement with Table 1 and the earlier experiments described in this work. SERS spectra after 2 minutes and 30 minutes of trypsin incubation show a further reduction of I1003 and I1206 with increasing incubation time (FIG. 7 (b)). […]
Spectra were acquired on a WITec Alpha 300 R+ confocal Raman microscope equipped with spectrometer using a 600 lpmm grating, a −70° C. cooled CCD camera (Andor iDus 401 BR-DD) and a 785 nm diode laser (Toptica, XTRA II). Raman spectra of the peptide powders were acquired using a Zeiss 100×/0.9 EC Epiplan NEOFLUAR; ∞/0 objective and a laser power of 100 mW, measured before the objective. […]
(§1) Starting from the 10×10 individual spectra, WITec Project Four® was used for removing cosmic rays. […] 11003 and 1829-860 were calculated by integrating the peaks at their respective positions and subtracting the background with a linear fit for the individual spectra. […]

Assay [4] deals with T1, trypsin. The assay can be described thus: Trypsin hydrolysis of unbound peptide observed through SERS spectra of a non-separated mixture. It counts as biochemical. The note with it: peptide 100 μg/ml, trypsin 2 μg/ml, 2 hours of incubation, no RP-HPLC separation. The source says: Apart from a thiol-gold interaction, N-terminal primary amines can also lead to a charge-based adsorption on metal surfaces (ref 39). This effect may be additive in the case of cysteine, but could lead to the adsorption of unwanted amino acids on the gold surface. In a second set of in-solution experiments, a similar trypsin was run—CALNNYGGGGVRGNF (SEQ ID NO:3) assay without separating the fractions by RP-HPLC (FIG. 5). One nanodome chip was labelled with a reference solution of the peptide (100 μg/ml), another with a solution of peptide (100 μg/ml) and trypsin (2 μg/ml) after 2 hours of incubation. […] Furthermore, the SERS and difference SERS-spectra shown in FIG. 5 confirm the findings of the RP-HPLC experiment in FIG. 4(a).
Spectra were acquired on a WITec Alpha 300 R+ confocal Raman microscope equipped with spectrometer using a 600 lpmm grating, a −70° C. cooled CCD camera (Andor iDus 401 BR-DD) and a 785 nm diode laser (Toptica, XTRA II). Raman spectra of the peptide powders were acquired using a Zeiss 100×/0.9 EC Epiplan NEOFLUAR; ∞/0 objective and a laser power of 100 mW, measured before the objective. SERS spectra were acquired through a Zeiss 63×/1.0 W-Plan Apochromat ∞/0 objective with 2 mW laser power. […]

Assay [5] has as its target T1, trypsin. The assay can be described thus: SERS-monitored trypsin hydrolysis of gold-nanodome bound peptides (with and without ovomucoid inhibitor). The conditions noted are these: for decrease of SERS intensity ratio I1003/I829-860: gold-nanodome bound peptide. It counts as biochemical. Here is the method:
In a third experimental setup, three CALNNYGGGGVRGNF (SEQ ID NO:3) labelled nanodome chips were incubated in a buffer without trypsin, with trypsin and with trypsin plus an ovomucoid inhibitor for 45 minutes (FIG. 6). […] On the chip with trypsin only, the surface bound peptides are cleaved, resulting in a decrease of 11003/1829-860 by 40-48%. […] Two possible origins are considered for the remaining signal at 1003 cm^−1. […] More likely, the remaining signal originates from peptides that are not accessible to the protease due to steric hindrance. This can be a result of a too dense monolayer of peptides (refs 11, 23) or inaccessible parts of the nanodome geometry. Especially in the latter case, the inaccessible peptides are probably located in the nanodome gaps and will contribute disproportionally strong to the SERS signal.
Spectra were acquired on a WITec Alpha 300 R+ confocal Raman microscope equipped with spectrometer using a 600 lpmm grating, a −70° C. cooled CCD camera (Andor iDus 401 BR-DD) and a 785 nm diode laser (Toptica, XTRA II). Raman spectra of the peptide powders were acquired using a Zeiss 100×/0.9 EC Epiplan NEOFLUAR; ∞/0 objective and a laser power of 100 mW, measured before the objective. SERS spectra were acquired through a Zeiss 63×/1.0 W-Plan Apochromat ∞/0 objective with 2 mW laser power. For real-time monitoring of enzymatic activity, the chip was placed in a metal petri dish filled with 1 ml 50 mM ammonium bicarbonate buffer (pH 7.8) inside a stage-top incubator at 37° C. (Okolab). Because of signal degradation upon laser illumination, each trace is the median spectrum of a spatially distributed map of 10×10 pixels in a 20×20 μm area with an integration time of 1 s on each point. In the real-time assay, every next trace was mapped on a different location on the SERS platform. […]
as §1

T1 sequence (P00761 9-231): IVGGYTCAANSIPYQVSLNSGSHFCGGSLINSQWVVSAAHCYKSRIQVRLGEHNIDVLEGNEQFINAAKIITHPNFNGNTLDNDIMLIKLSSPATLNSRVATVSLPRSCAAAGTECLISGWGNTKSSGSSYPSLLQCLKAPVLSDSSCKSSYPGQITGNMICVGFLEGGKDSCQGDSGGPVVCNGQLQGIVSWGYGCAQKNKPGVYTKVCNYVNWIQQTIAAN

On to “CALNN(bzF)GGGGVRGNF (CALNN[Bpa]GGGGVRGNF) [trypsin substrate analogue, tyrosine replaced by benzoyl-phenylalanine]”, for which, in assay [1], the “change of 1003 cm^-1 phenylalanine SERS peak in cleaved fraction after trypsin cleavage” value is on record as “decrease”.
For “CALNN(cnF)GGGGVRGNF (CALNN[Phe(4-CN)]GGGGVRGNF) [trypsin substrate analogue, tyrosine replaced by 4-cyano-phenylalanine]”, the “change of 1003 cm^-1 phenylalanine SERS peak in cleaved fraction after trypsin cleavage” value in assay [1] is recorded as “complete disappearance”.
As for CALNNYGGGGNNESWH, the “conversion of substrate to products by endoproteinase Glu-C (RP-HPLC/mass spectrometry)” value in assay [2] (4 hours of incubation, peptide 100 μg/ml, endoproteinase Glu-C 3.3 μg/ml) is recorded as “almost full conversion”. In assay [2] (cleaved peptide vs uncleaved dimer bound to nanodome chips), the “change of 754 cm^-1 and 1356 cm^-1 (tryptophan) SERS peaks upon endoproteinase Glu-C cleavage” value is “disappearance”.
Consider “CALNNYGGGGVRGNF (trypsin substrate) [trypsin substrate peptide with Tyr and Phe SERS reporters]”, for which the “time course of digestion of gold-bound peptide in real-time monitoring” value in assay [3] (8.6 nM trypsin concentration) is listed as “immediate digestion within the first two minutes”. In assay [3] (trypsin concentrations ranging from 1 to 0.2 μg/ml, 37° C., spectrum every 2-3 minutes), the “cleavage of accessible surface-bound substrate in real time (I1003/I829-860 versus time)” value is given as “most of the accessible substrate was cleaved within the time-span of the first measurement”. The “extent of digestion by trypsin, from lack of 1003 cm^-1 phenylalanine SERS peak” value in assay [4] is “fully digested”. Moreover, the “extent of substrate digestion by trypsin (RP-HPLC/MALDI-TOF)” value in assay [1] (30 minutes incubation) is listed as “almost fully digested”; in assay [1] (90 minutes incubation), “fully cleaved”. For the same molecule, the “change of 1003 cm^-1 phenylalanine SERS peak in cleaved fraction after trypsin cleavage” value in assay [1] is given as “full disappearance”. Further, the “decrease of SERS intensity ratio I1003/I829-860” value is given as 40-48% in assay [5] (45 minutes incubation) and not above 53% in assay [5] (trypsin).

B1: ovomucoid inhibitor: Ovomucoid (Type II-0) Trypsin inhibitor from chicken egg white (Sigma, T9253) (protein, UniProt P01005 25-210, looked up)
Ovomucoid: AEVDCSRFPNATDKEGKDVLVCNKDLRPICGTDGVTYTNDCLLCAYSIEFGTNISKEHDGECKETVPMNCSSYANTTSEDGKVMVLCNRAFNPVCGTDGVTYDNECLLCAHKVEQGASVDKRHDGGCRKELAAVSVDCSEYPKPDCTAEDRPLCGSDNKTYGNKCNFCNAVVESNGTLTLSHFGKC
As for B1, the “inhibition of tryptic cleavage of surface-bound peptide (SERS spectrum vs reference chip)” value in assay [5] (trypsin plus ovomucoid inhibitor, 45 minutes, inhibitor 100 μg/ml, substrate CALNNYGGGGVRGNF on nanodome chip) is given as “full blockade of tryptic cleavage”.
